Assays:
[1] = tested on: ovarian tumors in inh-KO mice; experiment: Ovarian tumor mass in inh-KO mice (necropsy); format: in vivo, mouse; settings: 12-week-old female inh-KO mice; single dose 30 mg/kg SC; necropsy 14 days after injection; FIG. 3A, 3B
Experimental: (§1) 12-week-old female and 8-week-old male inh-KO mice with fully established ovarian or testicular tumors received a single injection of PBS or sActRIIB (30 mg/kg, SC). As a control, age-matched wild-type littermates received a single injection of PBS. Ovarian and testicular organ weights were determined by necropsy 14 days after the injection.

[2] = tested on: testicular tumors in inh-KO mice; experiment: Light microscopy (H&E) of testes of inh-KO mice; format: in vivo, mouse; settings: male inh-KO mice; FIG. 7B
Experimental: as §1
Testes and ovaries from inh-KO mice were fixed with Zinc-formalin. Tissue sections were subjected to H&E staining and then examined with a Nikon Eclipse 90i microscope.

[3] = tested on: Smad2 signaling (phospho-Smad2); experiment: Western blot of phospho-Smad2 in tumors of inh-KO mice; format: in vivo, mouse; settings: increase over WT controls, FIG. 5B
Experimental: as §1
(§2) Protein extracts were prepared from cell cultures or tissues in T-PER tissue protein extraction reagent (Pierce) containing a mixture of protease inhibitors (Roche). A pool of 50 μg total protein for each group containing equal amounts of protein extract isolated from individual animals was separated by NuPAGE 4-12% Bis-Tris gel (Invitrogen) and transferred to PVDF. The membranes were probed with primary antibodies against total Smad2, p-Smad2 or E-cadherin (1:1000; Cell Signaling), endoglin, osteopontin (1:500; R&D Systems), IGFBP-1, IGFBP-2 (1:500; Abcam) followed by HRP-conjugated secondary antibody (1:2000; Cell Signaling). The membranes were stripped and re-probed with antibody against α-tubulin (1:1000; Cell Signaling).

IGFPB-2 = experiment: Western blot of IGFBP-2 in ovarian tumors of inh-KO mice; format: in vivo, mouse; settings: FIG. 8D
Experimental: as §1, §2

Ang-1 mRNA = Ang-1 mRNA in cell cultures (real-time RT-PCR); format: cell-based, human, bovine; settings: BAEC, MRC-5 and CCD-Lu cultures treated with recombinant activin-A, without or with sActRIIB; FIG. 16B
[4] = tested on: G361 human melanoma xenografts; experiment: G361 human melanoma xenograft growth in nude mice; format: in vivo; settings: sActRIIB 20 mg/kg SC 1x/week from day 14, FIG. 19
Experimental: 5×10^6 G361 melanoma cells and 5637 bladder carcinoma cells, respectively, were inoculated SC into individual athymic nu/nu mice (Harlan Inc). Treatment was initiated 4 days after 5637 implantation and 14 days after G361 implantation, when the tumor volumes reached 130 mm^3−150 mm^3 5637-implanted mice received PBS or activin-A antibody (10 mg/kg, SC, 2×/week). G361-implanted mice received PBS or sActRIIB (20 mg/kg, SC, 1×/week).
For all xenograft experiments, the tumor sizes were measured longitudinally by using an electronic caliper Immediately prior to the 1st dose, the tumor-bearing mice were randomized to ensure even distribution in tumor sizes across different groups. Tumor volumes (mm^3) were calculated as tumor length (mm)×tumor width (mm)×tumor height (mm) Tumor weights were determined by necropsy.

VEGF [5] = experiment: VEGF immunostaining in gonadal tumor sections of inh-KO mice; format: in vivo, mouse; settings: ovarian and testicular tumors of inh-KO mice; FIG. 8B
Experimental: as §1
Zinc-formalin fixed paraffin tumor tissue sections of 4 μm in thickness were prepared. The sections were subjected to antigen retrieval by microwave 3 min in Unmask solution (Vector H-3300) followed by incubation in 10 μg/ml Proteinase-K for 20 min and in 1% H2O2 in dH2O for 10 min at room temperature. The sections were further incubated in 0.1% Tween-20 in PBS for 3 min to permeabilize the cell membrane and in goat serum for 30 min to block non-specific binding. The sections were then incubated at room temperature with specific primary antibody for 3 hours followed by incubation in biotinylated or fluorescently labeled secondary antibody. Substrate developed in Vector SG kit (SK-4700) or DAB and nuclear-counterstained in Vector Fast Red (H-3403) or in hematoxylin. The immunostained tissue sections were analyzed and photographed using a Nikon Eclipse 90i microscope equipped with DS-Ril camera. […]

endoglin = experiment: Western blot of endoglin in ovarian tumors of inh-KO mice; format: in vivo, mouse; settings: FIG. 8D
Experimental: as §1, §2

VEGF [6] = experiment: Serum VEGF in inh-KO mice (ELISA); format: in vivo, mouse; settings: inh-KO mice with advanced ovarian and testicular tumors; single dose; FIG. 8A
Experimental: as §1
The serum VEGF levels in inh-KO mice were measured by using immunoassay kit (R&D Systems), and the levels of human VEGF and Ang-1 in cell line culture medium were quantified using ELISA kits purchased from Invitrogen (VEGF) and R&D Systems (Ang-1), by following the manufacturers' recommended protocols.

Ang-2 mRNA = experiment: Northern blot of Ang-2 mRNA in gonadal tumors of inh-KO mice; format: in vivo, mouse; settings: ovarian and testicular tumors of inh-KO mice; FIG. 8C
Experimental: as §1
Total RNA was isolated from individual tissue samples after homogenization in Trizol (Invitrogen). A pool of 10 μg RNA for each group containing equal amounts of total RNA isolated from individual animals was subjected to Northern blot analysis. The northern probes used for βA and Ang-2 were generated by using RT-PCR (Phusion, Biolabs). βA primer set: 5′-CCCTTGCTTTGGCTGAGAGGA-3′ and 5′-TC ACA GGT CGT CGT AGG TCG-3′; Ang-2 primer set: 5′-TGT GCC GGG GAG AAG AG and 5′-TACAGTAGTGGGTTGAGGTTC-3′. To normalize the expression, northern blot membranes were re-probed with β-actin.

B1: sActRIIB: extracellular domain of human activin type-2B receptor fused to IgG2 Fc, expressed in CHO cells; sequence in the 26th table (protein)
chain: ETRWCIYYNANWELERTNQGLERCEGEQDKRLHCYASWRNSSGTIELVKKGCWLDDFNCYDRQECVATEENPQVYFCCCEGNFCNERFTHLPEAGGPEVTYEPPPTAPTGGGGSVECPPCPAPPVAGPSVFLFPPKPKDTLMISRTPEVTCVVVDVSHEDPEVQFNWYVDGVEVHNAKTKPREEQFNSTFRVVSVLTVVHQDWLNGKEYKCKVSNKGLPAPIEKTISKTKGQPREPQVYTLPPSREEMTKNQVSLTCLVKGFYPSDIAVEWESNGQPENNYKTTPPMLDSDGSFFLYSKLTVDKSRWQQGNVFSCSVMHEALHNHYTQKSLSLSPGK
modifications: left off: a dimerising Fc or GST
[1]
  ovarian tumor mass: regressed rapidly to the sizes seen in the WT control mice
[2]
  testicular morphology (light microscopy): the testes were normal in size and filled with seminiferous tubules
[3]
  phospho-Smad2 in tumor tissues (Western blot): eliminated this increase in phospho-Smad2
IGFPB-2
  IGFPB-2 induction (Western blot): abolished completely
Ang-1 mRNA
  levels of Ang-1 mRNA: prevented this induction
[4]
  growth rates and sizes of G361 melanoma xenografts: significantly decreased the growth rates and sizes
VEGF [5]
  VEGF immunoreactivity in tumor sections: completely abolished the VEGF and Ang-1 inductions
endoglin
  endoglin induction (Western blot): abolished completely
VEGF [6]
  circulating VEGF levels: rapidly lowered the elevated VEGF to WT control levels
Ang-2 mRNA
  Ang-2 mRNA expression (Northern blot): inhibited its overexpression

Reference: patent publication US20140220033A1, “Administration of an Anti-Activin-A Compound to a Subject” (Santa Maria Biotherapeutics, Inc., priority 2013, published 2014)
